The record followed here is the Immune Epitope Database (IEDB).

pKd: −log10 of the molar value.

The target of experiment [1] is HLA-B*57:01. The experiment is described as follows: IEDB peptide-MHC binding, purified MHC/competitive/radioactivity; filed as Kd, often an IC50 or EC50 that approximates it; ≥ and ≤ were set here for values at or beyond the usual limits of such assays.
In experiment [2] the target is HLA-B*58:01. Described as above.
The next experiment deals with HLA-B*15:42. Put plainly: IEDB peptide-MHC binding, purified MHC/competitive/fluorescence; filed as Kd, often an IC50 or EC50 that approximates it; ≥ and ≤ were set here for values at or beyond the usual limits of such assays. The settings on record: source organism: Mycobacterium tuberculosis H37Rv.
The target of the next experiment is HLA-B*45:06. Described as above. The note with it: source organism: Mycobacterium tuberculosis H37Rv.
A further experiment has as its target HLA-B*83:01. The experiment is described as above. The note with it: source organism: Mycobacterium tuberculosis H37Rv.
The target in another experiment is HLA-C*03:03. The experiment is described as follows: IEDB peptide-MHC binding, purified MHC/direct/fluorescence; filed as Kd, often an IC50 or EC50 that approximates it; ≥ and ≤ were set here for values at or beyond the usual limits of such assays.
A further experiment addresses HLA-C*07:02. The description is as above. The note with it: source organism: Human herpesvirus 4 strain B95-8.
Experiment [3] addresses HLA-B*15:01. The experiment is described as follows: IEDB peptide-MHC binding, purified MHC/competitive/fluorescence; filed as Kd, often an IC50 or EC50 that approximates it; ≥ and ≤ were set here for values at or beyond the usual limits of such assays. The note with it: source organism: Bacillus anthracis str. A0488.
Another experiment deals with HLA-B*35:01. Described as above.
Another experiment deals with HLA-A*01:01. The experiment is described as follows: IEDB peptide-MHC binding, purified MHC/competitive/radioactivity; filed as Kd, often an IC50 or EC50 that approximates it; ≥ and ≤ were set here for values at or beyond the usual limits of such assays. The note with it: source organism: Dengue virus 2 Jamaica/1409/1983.
A further experiment deals with HLA-B*53:01. The experiment is described as above. The settings on record: source organism: Dengue virus 2 Jamaica/1409/1983.
For experiment [4], the target named is HLA-B*15:01. Put plainly: IEDB peptide-MHC binding, purified MHC/direct/fluorescence; filed as Kd, often an IC50 or EC50 that approximates it; ≥ and ≤ were set here for values at or beyond the usual limits of such assays. The settings on record: source organism: Reston ebolavirus - Reston.
Experiment [5] concerns the target HLA-B*58:01. The description is as above. The note with it: source organism: Reston ebolavirus - Reston.
The target of the next experiment is HLA-A*02:01. The experiment is described as follows: IEDB peptide-MHC binding, purified MHC/competitive/fluorescence; filed as Kd, often an IC50 or EC50 that approximates it; ≥ and ≤ were set here for values at or beyond the usual limits of such assays. The settings on record: source organism: Reston ebolavirus.
Another experiment has as its target HLA-A*26:01. Described as above. The settings on record: source organism: Reston ebolavirus.
For the next experiment, the target named is HLA-A*69:01. The experiment is described as above. The note with it: source organism: Reston ebolavirus.
The target in the next experiment is HLA-B*15:17. The experiment is described as above. The note with it: source organism: Reston ebolavirus.
The target of the next experiment is HLA-B*18:01. The description is as above. The settings on record: source organism: Reston ebolavirus.
The target in a further experiment is HLA-B*27:03. Described as above. The settings on record: source organism: Reston ebolavirus.
Another experiment addresses HLA-B*39:01. Described as above. The note with it: source organism: Reston ebolavirus.
The target in another experiment is HLA-B*51:01. The experiment is described as above. The settings on record: source organism: Reston ebolavirus.
Experiment [6] deals with HLA-B*57:01. The description is as above. The settings on record: source organism: Reston ebolavirus.
For another experiment, the target named is HLA-A*32:01. Put plainly: IEDB peptide-MHC binding, purified MHC/competitive/radioactivity; filed as Kd, often an IC50 or EC50 that approximates it; ≥ and ≤ were set here for values at or beyond the usual limits of such assays. The note with it: source organism: Dengue virus 4 Philippines/H241/1956.
The target of the next experiment is HLA-B*46:01. Put plainly: IEDB peptide-MHC binding, purified MHC/competitive/fluorescence; filed as Kd, often an IC50 or EC50 that approximates it; ≥ and ≤ were set here for values at or beyond the usual limits of such assays. The settings on record: source organism: Mycobacterium tuberculosis variant bovis BCG str. Pasteur 1173P2.
A further experiment deals with HLA-A*11:01. Described as above.
[7] abbreviates: source organism: Dengue virus 1 Brazil/97-11/1997.
Where [8] appears, read: source organism: Dengue virus 2 Jamaica/1409/1983.
[9] abbreviates: source organism: Dengue virus 4 Philippines/H241/1956.

On to ASSALLWMAS, for which the pKd with HLA-B*57:01 [1] (setting [7]) and with HLA-B*58:01 [2] (setting [7]) was 4.77 throughout.

In the case of ASSLLKNDIP, the pKd in the experiment with HLA-B*57:01 [1] (setting [8]) is 5.07; in the experiment with HLA-B*58:01 [2] (setting [8]), 5.68.

With FPRIGTAVF, the negative-log Kd (pKd) with HLA-B*15:42 is not above 5.30; with HLA-B*45:06 it was not above 5.30; with HLA-B*83:01 it was 5.08.

As to FYNIPPMPL, the pKd with HLA-C*03:03 (source organism: Human herpesvirus 4 strain B95-8) is 7.29; with HLA-C*07:02 it was 7.37.

As for IVVDNTSAF, the pKd with HLA-B*15:01 [3] is 7.15; with HLA-B*35:01 (source organism: Bacillus anthracis str. A0488) it was 9.40.

As for KAINVLRGF, the pKd was 8.46 with HLA-B*57:01 [1] (setting [8]) and 7.37 in the experiment with HLA-B*58:01 [2] (setting [8]).

Consider KSYAQMWQL, for which the negative logarithm of the Kd (pKd) with HLA-B*57:01 [1] (setting [7]) is 8.70; with HLA-B*58:01 [2] (setting [7]), 8.11.

With LTSSQQKADW, the pKd is 4.96 with HLA-A*01:01, not above 4.66 with HLA-B*53:01, 7.00 with HLA-B*57:01 [1] (setting [8]) and 7.23 with HLA-B*58:01 [2] (setting [8]).

Consider QAFEAGIDF, for which the pKd was 7.12 with HLA-B*15:01 [4]; 5.99 with HLA-B*58:01 [5]; not above 4.70 with HLA-A*02:01; not above 4.70 with HLA-A*26:01; not above 4.70 with HLA-A*69:01; not above 4.70 with HLA-B*15:17. For the same sequence, the pKd with HLA-B*18:01 was not above 4.70; with HLA-B*27:03, not above 4.70; in the experiment with HLA-B*35:01 (source organism: Reston ebolavirus), 9.70; with HLA-B*39:01, not above 4.70; with HLA-B*51:01, not above 4.70; with HLA-B*57:01 [6], not above 4.70.

In the case of RSWNTGFDW, the results for the pKd with HLA-A*32:01, with HLA-B*57:01 [1] (setting [9]) and with HLA-B*58:01 [2] (setting [9]) were 7.35, 7.86 and 7.75, respectively.

As for SAFGGGNAF, the pKd with HLA-C*03:03 (source organism: Mycobacterium tuberculosis variant bovis BCG str. Pasteur 1173P2) was not below 9.00; with HLA-B*46:01, 7.43.

With SSFSFGGFTFK, the pKd with HLA-A*11:01 (source organism: Influenza A virus H3N2) is 9.30.

As to TAAVLMLVAH, the negative-log Kd (pKd) with HLA-B*58:01 [2] (setting [7]) was 5.26.

Sequence TVFSLLLFY gave a negative logarithm of the Kd (pKd) in the experiment with HLA-A*11:01 (source organism: Yersinia pestis Nepal516) of 6.30.

For VASGLLWVAE, the pKd is not above 4.15 in the experiment with HLA-B*57:01 [1] (setting [9]) and 7.12 in the experiment with HLA-B*58:01 [2] (setting [9]).
